Results taken from the DeepSol protein solubility set.

Experiment: soluble on expression in E. coli; label from the status in PepcDB or PDB records
For “MQVSRFLTSFHRLSTALPASTEKYYFETVKHDNRNEVVDFLNNNFRVEEPLSKAAGMTESDIQSCFDGVFERVLKNEVSILARSKQSDEIVGCMLNSVWKRNDPKKNEDEAEDFEFGGDRKGVMTIGEILNELHESFWKLRPDQHTVLHFEISSVNKNHQRQGLASKFMNWTEKKELLKVIEASSIVAEASSLANQILLSKRGYETVASTLLSSRIDVNGKQILVCDDGTDRVDLVFKELN”, the “soluble on expression in E. coli” value was “not soluble”. For “MQYHEPVWIPAHLTTGEPDSFAAFTLEERLPAILDNLANHADARTDQALQQLAVEIREGEITPLPPVILGLFDQVIKPYTGRRWTDMPFLTVELYFYARILLAFGHTATTLVDPFHPIKNTVSLQAIESLTTMTGYCDSDCDITGLLRWSMTGNTADLSQQVVTDAGQISLLVDESYVAGGLFDSGLNRIDFVFDNAGMDVLTDLLLILRISRHCSRIVAHVRPWPMFVSDVTMTDMKYLIRKLVTSSIPAAKKLGEDITQLLHQNRLIFRSSSALGLPVCFCEEEALTRETFENTELVIFKGDLNYRYFVGDRRWPHTMEKRYFFERFSQPAICLRTLKSEVLVGLPADIATRTLHLQPDWLTSGRYGIIQVFAHMAGDPNSLEHHHHHH”, the “soluble on expression in E. coli” value was “not soluble”. For “MRACLKCKYLTNDEICPICHSPTSENWIGLLIVINPEKSEIAKKAGIDIKGKYALSVKE”, the “soluble on expression in E. coli” value was “soluble”. With “MRAELWQEQRLQLSLTKELVQAIELLQYSAADLEAFLYEQSLENPFLEIRRTRVRQRPSRTERDQKQWLENIGARAETLVGHLLSQLPALKLGDREERIVRYLIASLDEDGYLRVPLAELAARFSASEQEMERGLRLVQSLDPPGVGARDLAECLLLQLERLPERDELAETIVRYHFVPFAEKSWKTLAKQLGVSLGELQRVFELIRTLEPRPGIHYSSETLPLVVPDVIVTRGADGDWMAAYNDDIHPELGWNRDYERRIAASGDRHAEQFIKEKYRQFTWLAKSLEQRKQTLLHLMAVIIDRQRSCLEFGLSALKPMTMREVAEELGVHESTVSRAVRHKYVQTPFGTVELRRFFSNAATAAGDEAASSAHVKAIMEALISEEDRRAPLSDQQLADLLRDRYGIAISRRTVAKYREQLRIPSSAKRRQYIGLP” the “soluble on expression in E. coli” value was “not soluble”. In the case of “MRAFYSTTEEISALFAKQQEQLKTMQRTLEDEDNCDNTSLDIDLNPINRSPNRANTQGDKRATSHLNFAARASSSTSGQRSTRNEVVDTSCEDADATQKHDCEIMSQEGQNTQEAEYPSSDKVAKGGFGSDIEGIGTAPTSGTDPVGTEQVNETQSPGNDYERNDHLRKSIILAGDTMQIDCETQVHESVQIEGAVLLLRNPNDRRDTQDIEGVGTIGTSDLLASEVAGSWANSTNPSVHGENETERSREDEESQTQKIKEVTIVQDSAGQIGESQTKPTSPGVLVTNKDDAERGVINEPVGITDQGKIKHGTRSDSETESCSDSDDDHEKEKHNPVSDSDTEGSDMNDDKGSLSSDPDTERSHEVDGDQKKQVDTMDEDDKAT”, the “soluble on expression in E. coli” value is reported as “soluble”. For “MRANLGVPSTIAQSRWAESATSFPTATVAAAGGKDIEIERDVAHNQPGGIFPNVIFLESLDFSACFVDAHQVFVSDGSVMFRRWDRQKKTGRKK”, the “soluble on expression in E. coli” value was “not soluble”. For “MRAVVLVPFLKQQRENRDAASAPAAPGRSVEAKLEEAKGLALAIDLEVTQGLVVPVNQPRPATLFGTGKIEEIGHLLDETNSGLVIVDHPLTPVQQRNLEKQWNAKVIDRTGLILEIFGRRASTKEGTLQVDLAHLNYQKGRLVRSWTHLERQRGGAGFMGGPGETQIEADRRLLQDRIVKLEKELEQVVRTRQLHRAKRRKVPHPIVALVGYTNAGKSTLFNRITGAGVLAEDMLFATLDPTLRRMKLPHGRTVILSDTVGFISDLPTHLVAAFRATLEEVLEA”, the “soluble on expression in E. coli” value was “not soluble”. In the case of “MRDAALRYPNILFDLDGTLTDPREGITRSVQFALARLGIDEPDLARLEHFIGPPLLQCFMQTYGFDEARAWEAVNHYRERFRVTGLYENRVFDGIPELLEALVGRGHTLYVATSKPGVFAREIARHFAFDRHFKAIYGSELDGTRTHKEELIRHLLDSEGLAAEHCLMIGDRMHDLLGASRNGVACIGVGYGFGSEDELRAHQPTHYCADLAALRQVLESH”, the “soluble on expression in E. coli” value is reported as “not soluble”. In the case of “MRDALHVTADDADATDDAIPDSRETGVTGVVLAGGLSTRLGHDKAVIRLHGEQGPDLLVRTAALLEPLVDEVWISCRPGRCVTGPYLRIYDEVQGLGPFGGVMTALRAAQGPVLVLSCDLPFMERTLLERLLERRGARHPEALMTTFRQEETGFIESLVAVYEYACLPFFEDALTDGVHKLSRVIPAERREDIVYTQNEALPFFNVNYPADLEMARRIIGALLEHHHHHH”, the “soluble on expression in E. coli” value is reported as “not soluble”. In the case of “MRDGEGIWGRGRTGGHAHPKEAMHTTFFILGGTMLIGVISDTHLYDRAFELPKAVFDEFSNVDLIIHCGDVTDKEILDSLKDLAKVVAVKGNMDYLNLPRKEILEINDIKIGVIHGDVVYPRGDRLKLRLLGKEMGVDVLISGHTHTPFIDDCRDILLLNPGSPTVPRCPLKSIMKLSVEDKLEAKLIPIEE”, the “soluble on expression in E. coli” value is reported as “soluble”. In the case of “MRDNASLAHTQWNCKYHIVFAPKYRRQVIYGKIKKDIGQILRKLCEMKGVEIIEASLCPDHIHMLVSIPPKISVSSFMGYLKGKSSLMIFNRHANLKYKYGNRHFWCRGYYVDTVGRNRKAIEQYIRRQLQEDIASDQISLNEYIDPFTGERVNKSKK”, the “soluble on expression in E. coli” value is reported as “not soluble”. With “MRDPFMEALGLKVLHLAPGEAVVAGEVRADHLNLHGTAHGGFLYALADSAFALASNTRGPAVALSCRMDYFRPLGAGARVEARAVEVNLSRRTATYRVEVVSEGKLVALFTGTVFRLGGDGDDVPAGTGNLAPREA” the “soluble on expression in E. coli” value was “soluble”. In the case of “MRDTIPVTILSGSLGAGKTTLLNHLLTEAGDRDIAVLVNDMGTVNVDAELIAEGSELDVDDGVAELSNGCICCELQDDLETAVVRLADDRDFDALVVESSGISEPAPVARLFTTESRVAALYRVDTLVTVLDTRLFLDSFAGETPERRGSGEASADGDGDDTEADGADRPLSDLMVEQVELSNLVVLNKTDLCTDEEMDEAEELVRALQPDAETIRTTFSQVDPDRLFDRALFDQTEISDLPGWKRALAESGHGHGEGSHDHGGDSHETDAHEGDTGHGHDDHHHPEEVYGVTSFTYRRRRPFHPDRLAEVLQDLPSGVVRSKGTVWLAGSERRVVIGQAGPSIRAEAQGPWIASLPEVEQDMYRSNRPELDWHDEHGDRRTELVFIGTDYDESALRTALDDALVTDEEWTESESLTGPFPAEQGEEAVIRSP”, the “soluble on expression in E. coli” value is reported as “not soluble”. For MREKWRKKRMRRLKRKRRAAKK, the “soluble on expression in E. coli” value was “not soluble”. With “MREVISIHVGQAGVQIGNACWELYCLEHGILPDGTSMEPDGNSGSLGTFFSDTGYGRHVPRSIFVDLEPTVVDEIRTGAYKKLFHPEQMLTGKEDAANNYARGHYTVGKEIIDTTLDRIRRLANNCEGLQGFFVFHSFGGGTGSGFTSMLMERLSAEYGKKSKLEFSIYPAPQISTSVVEPYNSILTTHTTLEHSDCSFMVDNEAIYDICRRNLRVSRPTYNNLNRIISQVVSSITASLRFDGALNVDLNEFQTNLVPYPRIHFPLVAYNPLISSAHHEFLSVDEITKSCFEASNQMVKCDPKHGKYMAVCLLYRGDVVPKDVSAAIKSIKTQRSVQFVDWCPTGFKVGLNYQPPTVIPGGDMAKVPRAVCMLSNTTAIAEAWQRLDYKFDLMYAKRAFVHWYVGEGMEEGEFSEAREDLAALEKDYEEVGADSDANDNGDDEY” the “soluble on expression in E. coli” value was “not soluble”. With “MRFIHTSDWHLGKSLEGHSRIEEQAKFCEEFIKIVESNEIDMVIIAGDVYDTSNPPAQAEKLFYQTVSRLANNGQRCVLIISGNHDNPERLSAITPLAHEQGILIYGYPLSATIEAKYKGFEITYATQGCTKLNINGENIVVATLPYPSEKRLNEVFSSEDEFEKQKNYSEKVGDIFRSLEENFRSDTINIAVSHIFVIGGESTESERPIQLGGSFLVERKDLPEKAQYTALGHLHKQQKASERLNAYYSGSPLQYSKDERAYTKGAYIVDIKAGEKPIIEDVYFNNYKPIEVFKCNGIEEALDICEQNQDREIWSYFEINTDEIISQNEIKKMKELLKDIIEIKPIITSCYEQESVDIKEKSMAELFREFYSFSKGVEPKGELMDLFLDIISEEGESADETN” the “soluble on expression in E. coli” value was “not soluble”. In the case of “MRFLFSLIGLVYSSLIKLAVPFNPKARMMVRGRWKVWRQLREGIVPGGRYIWFHAASLGEFEQGRPMIERIRSEYPDYRIVLTFFSPSGYEVRKNYEGADVIVYLPADRLPRVRKFLDLVKPEMAIFIKYDFWPCFLTELERRQIPTYLVSSIFRPSQLFFRWYGGAYKRLLHCFTHIFVQDKASRLLLEKHGIDHVSVAGDTRFDRVISVYEARKSLPLIERFAASVPEDGLVIVGGSSWPPDEEILVRYFNRNPKIKLILAPHEIDKEHLLQIISHIRRPFIRLSEATESDIARQDCLIVDSFGLLSSIYRYGQVAFIGGGFGKGIHNTPEAAVYGIPVIFGPRYEKFKEARELIDVGGGFSVSSAEEFGNLIKRIQTDKAYRDAASRAAADYIRSNAGATGYIVHRIMKLEHHHHHH”, the “soluble on expression in E. coli” value is reported as “soluble”. With “MRFQYQALLNEHQSQLDRFSSHIVATLDKYAHIPHLISKDKELVDALLSAQNSAQIDITNRYLEQVNEVIQAADTYLIDRFGNTIASSNWNLDRSFIGRNFAWRPYFYLSIAGQKSQYFALGSTSGQRGYYYAYPVIYAAEILGVIVVKMDLSAIEQGWQNKSSYFVATDDHQVVFMSSQPAWLFHSVADLSPAQLNDIRQSQQYLDSPIPSLGWQGDLQAEQSEWRKPEKHWLQDDYIVSSRPLPELALTIRVLSPKIE” the “soluble on expression in E. coli” value was “soluble”. For “MRFVFDIDGTLCFDGRLIDQTIIDTLLQLQHDGHELIFASARPIRDLLPVLPSVFHQHTLIGANGAMISQQSKISVIKPIHTDTYHHILKIIQKYELDYIIDDDWNYAAQLDAENAIFERLDPHKLASCIDVANIDTPIKIILLNIDPAQITTILDELNKYHQELEMIHHSNEYNIDITAQNINKYTALQYIFDADVKYIAFGNDHNDIFMLQHASSGYIIGPSEAYTHAILKLDKIKHINNNTQAICKVLKSYK”, the “soluble on expression in E. coli” value was “not soluble”. In the case of “MRGCNKETGEFLGPSRSQQRRTALEVLVLSEKLAALTPAQLAKLPIPERLLPHITETKRITSHIARKRQLAFLAKQMRREDDTTLEAIREKLNASGIQAQREVATLHRTEQWRKRLLEEGDSALTELLNQYPQADCGKLRQLLRNSKTEQARNKAPQAFRELYQVLHGLIITQ”, the “soluble on expression in E. coli” value is reported as “not soluble”. For “MRGLTPEQTLMLADAFCAQTSGDLSVRDYAALNAIAAVTTAHIHAVVVFPTAHHMVKYVRSLVIQLSPLDDRNTDFADFLVAVLRDLNGL”, the “soluble on expression in E. coli” value was “not soluble”. With “MRGSHHHHHHGMASHMATEQTAITRATFDEVILPVYAPADFIPVKGKGSRVWDQQGKEYIDFAGGIAVTALGHCHPALVEALKSQGETLWHTSNVFTNEPALRLGRKLIDATFAERVLFMNSGTEANETAFKLARHYACVRHSPFKTKIIAFHNAFHGRSLFTVSVGGQPKYSDGFGPKPADIIHVPFNDLHAVKAVMDDHTCAVVVEPIQGEGGVQAATPEFLKGLRDLCDEHQALLVFDEVQCGMGRTGDLFAYMHYGVTPDILTSAKALGGGFPVSAMLTTQEIASAFHVGSHGSTYGGNPLACAVAGAAFDIINTPEVLQGIHTKRQQFVQHLQAIDEQFDIFSDIRGMGLLIGAELKPKYKGRARDFLYAGAEAGVMVLNAGADVMRFAPSLVVEEADIHEGMQRFAQAVGKVVA” the “soluble on expression in E. coli” value was “soluble”. With “MRGSHHHHHHGSAERMLATIMFTDIVGSTQHAAALGDDRWRDLLDNHDTIVCHEIQRFGGREVNTAGDGFVATFTSPSAAIACADDIVDAVAALGIEVRIGIHAGEVEVRDASHGTDVAGVAVHIGARVCALAGPSEVLVSSTVRDIVAGSRHRFAERGEQELKGVPGRWRLCVLMRDDATRTR” the “soluble on expression in E. coli” value was “soluble”.
